# In patent US20230071765A1, “COMPOSITIONS HAVING THIOREDOXIN ACTIVITY AND RELATED METHODS” (ORPRO THERAPEUTICS, INC., priority 2020, published 2023):
# B1: ORP100S: thioredoxin with monothiol active site, Cys35 and non-active Cys 62, 69 and 73 substituted with serine (SEQ ID NO:29) (protein)
# chain: MVKQIESKTAFQEALDAAGDKLVVVDFSATWCGPSKMIKPFFHSLSEKYSNVIFLEVDVDDSQDVASESEVKSMPTFQFFKKGQKVGEFSGANKEKLEATINELV
# modifications: synthetic peptide motif
# Columns and labels:
# [1] = test system: CF patient sputum on wild type rat trachea; assay: CF sputum transport ex vivo on excised rat trachea (μOCT); design: species or system human sputum
# Method: To determine the effect of ORP100S on CF sputum transportability, sputum specimens spontaneously expectorated from 4 CF patients hospitalized for pulmonary exacerbation were collected and stored at 4° C. before being divided into 200 μL aliquots and treated with ORP100S (3 mM), PBS, DTT (1.6 mM), or DNase (10 or 25 μg/ml) on the day of or day following collection. Upon treatment, sputum aliquots were placed in a 37° C. water bath for 2 hrs and then applied (3 μl per sample) for μOCT imaging to the distal end of trachea excised from adult non-CF rats. Trachea were washed 2× with 500 μl of PBS before sputum addition. Sample conditions were applied in triplicate in random order at distinct anatomic locations—2 washes using 500 μl of PBS were performed between each sample addition—and at least 3 images were collected from each region of interest. Confirmation of trachea viability was obtained by imaging with PBS upon completion of the experiment.
# (§1) One-micron resolution spectral domain μOCT was used to obtain measurements of mucociliary transport (MCT) rate and ciliary beat frequency (CBF) in HBE monolayers and of MCT rate of sputum ex vivo. This first-in-kind, high-speed (40 frames per second, 512 lines per frame) microscopic reflectance imaging modality enables simultaneous anatomic imaging in cell cultures and intact tissues that readily distinguishes the properties of CF compared to normal epithelia (Liu L, Chu K K, Houser G H, Diephuis B J, Li Y, Wilsterman E J, Shastry S, Dierksen G, Birket S E, Mazur M, et al., 2013, Method for quantitative study of airway functional microanatomy using micro-optical coherence tomography, PLoS One 8(1):e54473; Tuggle K L, Birket S E, Cui X, Hong J, Warren J, Reid L, Chambers A, Ji D, Gamber K, Chu K K, et al., 2014, Characterization of defects in ion transport and tissue development in Cystic Fibrosis Transmembrane Conductance Regulator (CFTR)-knockout rats. PLoS One 9(3):e91253). In addition to MCT rate and CBF, μOCT also has the capability to assess physical characteristics of the airway surface liquid. Images were captured, and MCT rate and CBF calculated, as described in the preceding references.
# The effect of ORP100S on mucus clearance using intact rat trachea, which include the complexities of the airway surface such as gland expression of a fully differentiated mucosal surface, was further evaluated. […] MCT was measured by projecting a cross-sectional line through the mucus through time, with the slope of the particle trajectories indicating velocity. […]
# Sprague-Dawley rats = assay: nebulized aerosol inhalation in rats, inflammatory potential and toxicity; type: in vivo, rat
# Method: This example evaluated and compared the in vivo inflammatory potential among three forms of C35S monothiol Trx (oxidized ORP-100, reduced ORP-100, and reduced ORP100S) formulated in the sucrose/EDTA formulation composition described in PCT WO 2006/090127 and delivered to normal rats as nebulized aerosols at doses of […] and 40 mg/kg.
# All three forms of ORP-100 were lyophilized following reduction with DTT and formulated in sucrose buffer (9% sucrose 1.17 mM EDTA pH 5.2). All test articles were evaluated at low (10 mg/kg) and high (40 mg/kg) target delivered doses. The test articles were administered to Charles River Sprague-Dawley rats via inhalation as an aerosol. The aerosol of each of the test articles was produced by a commercially available vibrating mesh nebulizer whose output was attached to a nose-only exposure system.
# Target doses were achieved via modulation of the aerosol exposure time while maintaining the aerosol concentration constant. Animals in Low Dose groups received a single dose of test article during a 20 minute exposure to achieve a target delivered dose of 10 mg/kg and deposited dose of 1 mg/kg. Animals in High Dose groups received a single dose of test article during a 75 minute exposure to achieve a target delivered dose of 40 mg/kg and target deposited dose of 4 mg/kg.
# Animals in each study group were evaluated for potential toxicity by measuring various parameters including: clinical signs, body weight, clinical pathology (BALF cell counts, LDH and albumin measurements), lung tissue cytokines, lung weights, gross pathology, and microscopic pathology of respiratory target tissues. Additionally, three animals in each Low Dose group had lung tissues collected for immunohistochemistry (Alizèe Pathology, Thurmont, M D). Three (3) animals in each Low Dose group were to be euthanized at 1 hour and 4 hours post exposure for blood and tissue collections. Four (4) animals in each High Dose group were euthanized at 4 and 20 hours post exposure for blood and tissue collections.
# [2] = test system: primary HBE cells from healthy non-CF donors; assay: μOCT of MCT rate and CBF in non-CF primary HBE cells; type: cell-based, human
# Source text: Primary human bronchial epithelial (HBE) cells were derived from lung explants from healthy failed donors and CF patients homozygous for F508del CFTR. […]
# as §1, with “PLoS One 9(3):e91253). In addition to MCT rate and CBF, μOCT also has the capability to assess physical characteristics of the airway surface liquid.” left out
molecule,measurement,setting,value
B1,sputum density vs. PBS-treated sputum,"[1]; 3 mM, μOCT images",effective in decreasing sputum density
same,change in MCT rate normalized to the effect of PBS,"[1]; sputum treated 2 hrs, ORP100S 3 mM, DTT 1.6 mM, DNase 10 or 25 μg/ml",3.80±0.35 fold vs. PBS
same,MCT rate of treated sputum,"[1]; sputum treated 2 hrs, ORP100S 3 mM, DTT 1.6 mM, DNase 10 or 25 μg/ml, PBS 0.97±0.17",4.68±0.9 mm/min
same,"differences in BALF LDH, albumin, cell counts, differential counts and lung tissue cytokines vs. oxidized ORP-100 control groups",Sprague-Dawley rats; low and high dose aerosol,unremarkable
same,neutrophil influx (sucrose/EDTA formulation effect),"Sprague-Dawley rats; sucrose/EDTA formulation, nebulized aerosol",abrogated neutrophil influx almost completely
same,"adverse test article effects (clinical observations, BALF chemistry, cell count, differential, lung cytokines, macroscopic and microscopic findings)","Sprague-Dawley rats; target delivered doses 10 mg/kg and 40 mg/kg, aerosol, 1, 4 or 20 hours post exposure",no evidence of adverse test article effects
same,CBF,[2]; 3 hrs post treatment,no meaningful differences
same,MCT rate,"[2]; 3 hrs post-treatment, ORP100S 1-3 mM, DTT 1.6 mM, PBS 0.05±0.007, mean±SE",2.18±0.3 mm/min
